Measured values reported in patent publication US12679878B2, “CRF2 receptor agonists and their use in therapy” (SANOFI, priority 2020, dated 2026).
Starred links: 1 amine or outer side, 2 acyl side, 3 side chain; linkers in the order of their positions; H or OH if unused. Non-standard residues stand in square brackets, D forms with d. Groups on a side chain read outwards from the residue. No end group written: not given here. *: point of attachment. C16 diacid = O=C(O)CCCCCCCCCCCCCCC(=O)*; γGlu = O=C(O)[C@H](CCC(=O)[*:2])N[*:1]; Palmitoyl = CCCCCCCCCCCCCCCC(=O)*; AEEA = NCCOCCOCC(=O)O; Aib = CC(C)(N)C(=O)O

T1: CRF1R receptor (anti-target) (UniProt P34998 24-415, limits assumed)
T1 sequence (looked up): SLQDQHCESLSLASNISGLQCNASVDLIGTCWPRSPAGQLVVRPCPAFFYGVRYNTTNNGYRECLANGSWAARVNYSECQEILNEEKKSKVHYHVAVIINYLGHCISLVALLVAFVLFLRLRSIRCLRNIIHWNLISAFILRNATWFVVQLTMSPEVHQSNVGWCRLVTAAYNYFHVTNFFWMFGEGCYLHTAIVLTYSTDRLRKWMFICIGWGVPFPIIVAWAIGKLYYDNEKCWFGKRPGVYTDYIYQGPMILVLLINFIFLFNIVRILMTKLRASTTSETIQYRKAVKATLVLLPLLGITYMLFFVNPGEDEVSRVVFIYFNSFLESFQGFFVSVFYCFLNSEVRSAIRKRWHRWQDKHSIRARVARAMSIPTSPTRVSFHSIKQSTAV


Experiments:
[1] = biological target: human corticotropin-releasing factor 2α (CRF2α receptor) (human), Q13324; assay: cell-based or functional assay
human corticotropin-releasing factor 2α (CRF2α receptor) (human), Q13324, sequence (Q13324 20-411): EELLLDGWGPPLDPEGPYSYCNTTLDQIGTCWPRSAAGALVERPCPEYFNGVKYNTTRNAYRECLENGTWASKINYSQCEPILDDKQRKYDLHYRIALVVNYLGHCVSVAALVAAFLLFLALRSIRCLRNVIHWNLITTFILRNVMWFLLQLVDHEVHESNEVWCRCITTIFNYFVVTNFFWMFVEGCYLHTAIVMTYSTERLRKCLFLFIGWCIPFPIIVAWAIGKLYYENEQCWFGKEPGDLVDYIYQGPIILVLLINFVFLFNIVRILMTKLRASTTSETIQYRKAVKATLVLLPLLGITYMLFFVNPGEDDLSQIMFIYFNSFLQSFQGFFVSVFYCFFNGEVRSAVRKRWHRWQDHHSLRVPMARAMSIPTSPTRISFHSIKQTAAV

[2] = biological target: T1, CRF1R receptor (anti-target); assay: cell-based or functional assay

Row | Binder | EC50 [nM], 0% HSA (cAMP, HTRF) [1] [nM] | EC50 [nM] 0% HSA (cAMP, HTRF) [2] [nM] | Emax (%) (100% = Sauvagine at 100 nM) [2]
1 | IVLSLD[dV]PIKLK([γGlu-Palmitoyl])QILLKQERQKKQREKAEKNKQILAQV-NH2 (N-terminus assumed; SMILES CCCCCCCCCCCCCCCC(=O)N[C@@H](CCC(=O)NCCCC[C@H](NC(=O)[C@H](CC(C)C)NC(=O)[C@H](CCCCN)NC(=O)[C@@H](NC(=O)[C@@H]1CCCN1C(=O)[C@H](NC(=O)[C@H](CC(=O)O)NC(=O)[C@H](CC(C)C)NC(=O)[C@H](CO)NC(=O)[C@H](CC(C)C)NC(=O)[C@@H](NC(=O)[C@@H](N)[C@@H](C)CC)C(C)C)C(C)C)[C@@H](C)CC)C(=O)N[C@@H](CCC(N)=O)C(=O)N[C@H](C(=O)N[C@@H](CC(C)C)C(=O)N[C@@H](CC(C)C)C(=O)N[C@@H](CCCCN)C(=O)N[C@@H](CCC(N)=O)C(=O)N[C@@H](CCC(=O)O)C(=O)N[C@@H](CCCNC(=N)N)C(=O)N[C@@H](CCC(N)=O)C(=O)N[C@@H](CCCCN)C(=O)N[C@@H](CCCCN)C(=O)N[C@@H](CCC(N)=O)C(=O)N[C@@H](CCCNC(=N)N)C(=O)N[C@@H](CCC(=O)O)C(=O)N[C@@H](CCCCN)C(=O)N[C@@H](C)C(=O)N[C@@H](CCC(=O)O)C(=O)N[C@@H](CCCCN)C(=O)N[C@@H](CC(N)=O)C(=O)N[C@@H](CCCCN)C(=O)N[C@@H](CCC(N)=O)C(=O)N[C@H](C(=O)N[C@@H](CC(C)C)C(=O)N[C@@H](C)C(=O)N[C@@H](CCC(N)=O)C(=O)N[C@H](C(N)=O)C(C)C)[C@@H](C)CC)[C@@H](C)CC)C(=O)O) [peptide of SEQ ID NO: 213] | 4.48 | – | –
2 | IVLSLD[dV]PIKLK([γGlu-C16 diacid])QILLKQERQKKQREKAEKNKQILAQV-NH2 (N-terminus assumed; SMILES CC[C@H](C)[C@H](N)C(=O)N[C@H](C(=O)N[C@@H](CC(C)C)C(=O)N[C@@H](CO)C(=O)N[C@@H](CC(C)C)C(=O)N[C@@H](CC(=O)O)C(=O)N[C@@H](C(=O)N1CCC[C@H]1C(=O)N[C@H](C(=O)N[C@@H](CCCCN)C(=O)N[C@@H](CC(C)C)C(=O)N[C@@H](CCCCNC(=O)CC[C@H](NC(=O)CCCCCCCCCCCCCCC(=O)O)C(=O)O)C(=O)N[C@@H](CCC(N)=O)C(=O)N[C@H](C(=O)N[C@@H](CC(C)C)C(=O)N[C@@H](CC(C)C)C(=O)N[C@@H](CCCCN)C(=O)N[C@@H](CCC(N)=O)C(=O)N[C@@H](CCC(=O)O)C(=O)N[C@@H](CCCNC(=N)N)C(=O)N[C@@H](CCC(N)=O)C(=O)N[C@@H](CCCCN)C(=O)N[C@@H](CCCCN)C(=O)N[C@@H](CCC(N)=O)C(=O)N[C@@H](CCCNC(=N)N)C(=O)N[C@@H](CCC(=O)O)C(=O)N[C@@H](CCCCN)C(=O)N[C@@H](C)C(=O)N[C@@H](CCC(=O)O)C(=O)N[C@@H](CCCCN)C(=O)N[C@@H](CC(N)=O)C(=O)N[C@@H](CCCCN)C(=O)N[C@@H](CCC(N)=O)C(=O)N[C@H](C(=O)N[C@@H](CC(C)C)C(=O)N[C@@H](C)C(=O)N[C@@H](CCC(N)=O)C(=O)N[C@H](C(N)=O)C(C)C)[C@@H](C)CC)[C@@H](C)CC)[C@@H](C)CC)C(C)C)C(C)C) [peptide of SEQ ID NO: 191] | 2.68 | > 100 | 12.5
3 | IVLSLD[dV]PIKLK([AEEA-AEEA-γGlu-γGlu-Palmitoyl])QILLKQERQKK[Aib]RQKAEKNKQILAQV-NH2 (N-terminus assumed; SMILES CCCCCCCCCCCCCCCC(=O)N[C@@H](CCC(=O)N[C@@H](CCC(=O)NCCOCCOCC(=O)NCCOCCOCC(=O)NCCCC[C@H](NC(=O)[C@H](CC(C)C)NC(=O)[C@H](CCCCN)NC(=O)[C@@H](NC(=O)[C@@H]1CCCN1C(=O)[C@H](NC(=O)[C@H](CC(=O)O)NC(=O)[C@H](CC(C)C)NC(=O)[C@H](CO)NC(=O)[C@H](CC(C)C)NC(=O)[C@@H](NC(=O)[C@@H](N)[C@@H](C)CC)C(C)C)C(C)C)[C@@H](C)CC)C(=O)N[C@@H](CCC(N)=O)C(=O)N[C@H](C(=O)N[C@@H](CC(C)C)C(=O)N[C@@H](CC(C)C)C(=O)N[C@@H](CCCCN)C(=O)N[C@@H](CCC(N)=O)C(=O)N[C@@H](CCC(=O)O)C(=O)N[C@@H](CCCNC(=N)N)C(=O)N[C@@H](CCC(N)=O)C(=O)N[C@@H](CCCCN)C(=O)N[C@@H](CCCCN)C(=O)NC(C)(C)C(=O)N[C@@H](CCCNC(=N)N)C(=O)N[C@@H](CCC(N)=O)C(=O)N[C@@H](CCCCN)C(=O)N[C@@H](C)C(=O)N[C@@H](CCC(=O)O)C(=O)N[C@@H](CCCCN)C(=O)N[C@@H](CC(N)=O)C(=O)N[C@@H](CCCCN)C(=O)N[C@@H](CCC(N)=O)C(=O)N[C@H](C(=O)N[C@@H](CC(C)C)C(=O)N[C@@H](C)C(=O)N[C@@H](CCC(N)=O)C(=O)N[C@H](C(N)=O)C(C)C)[C@@H](C)CC)[C@@H](C)CC)C(=O)O)C(=O)O) [peptide of SEQ ID NO: 211] | 0.94 | – | –

Now from value to binder:

Row | EC50 [nM], 0% HSA (cAMP, HTRF) [1] [nM] | EC50 [nM] 0% HSA (cAMP, HTRF) [2] [nM] | Emax (%) (100% = Sauvagine at 100 nM) [2] | Binder
4 | 0.16 | – | – | IVLSLD[dV]PIGLK([AEEA-AEEA-γGlu-γGlu-Palmitoyl])QILLKQERQKK[Aib]REQAETNKQILAQV-NH2 (N-terminus assumed; SMILES CCCCCCCCCCCCCCCC(=O)N[C@@H](CCC(=O)N[C@@H](CCC(=O)NCCOCCOCC(=O)NCCOCCOCC(=O)NCCCC[C@H](NC(=O)[C@H](CC(C)C)NC(=O)CNC(=O)[C@@H](NC(=O)[C@@H]1CCCN1C(=O)[C@H](NC(=O)[C@H](CC(=O)O)NC(=O)[C@H](CC(C)C)NC(=O)[C@H](CO)NC(=O)[C@H](CC(C)C)NC(=O)[C@@H](NC(=O)[C@@H](N)[C@@H](C)CC)C(C)C)C(C)C)[C@@H](C)CC)C(=O)N[C@@H](CCC(N)=O)C(=O)N[C@H](C(=O)N[C@@H](CC(C)C)C(=O)N[C@@H](CC(C)C)C(=O)N[C@@H](CCCCN)C(=O)N[C@@H](CCC(N)=O)C(=O)N[C@@H](CCC(=O)O)C(=O)N[C@@H](CCCNC(=N)N)C(=O)N[C@@H](CCC(N)=O)C(=O)N[C@@H](CCCCN)C(=O)N[C@@H](CCCCN)C(=O)NC(C)(C)C(=O)N[C@@H](CCCNC(=N)N)C(=O)N[C@@H](CCC(=O)O)C(=O)N[C@@H](CCC(N)=O)C(=O)N[C@@H](C)C(=O)N[C@@H](CCC(=O)O)C(=O)N[C@H](C(=O)N[C@@H](CC(N)=O)C(=O)N[C@@H](CCCCN)C(=O)N[C@@H](CCC(N)=O)C(=O)N[C@H](C(=O)N[C@@H](CC(C)C)C(=O)N[C@@H](C)C(=O)N[C@@H](CCC(N)=O)C(=O)N[C@H](C(N)=O)C(C)C)[C@@H](C)CC)[C@@H](C)O)[C@@H](C)CC)C(=O)O)C(=O)O) [peptide of SEQ ID NO: 217]
5 | 0.15 | – | – | IVLSLD[dV]PIGLK([γGlu-Palmitoyl])QILLKQERQKK[Aib]REQAETNKQILAQV-NH2 (N-terminus assumed; SMILES CCCCCCCCCCCCCCCC(=O)N[C@@H](CCC(=O)NCCCC[C@H](NC(=O)[C@H](CC(C)C)NC(=O)CNC(=O)[C@@H](NC(=O)[C@@H]1CCCN1C(=O)[C@H](NC(=O)[C@H](CC(=O)O)NC(=O)[C@H](CC(C)C)NC(=O)[C@H](CO)NC(=O)[C@H](CC(C)C)NC(=O)[C@@H](NC(=O)[C@@H](N)[C@@H](C)CC)C(C)C)C(C)C)[C@@H](C)CC)C(=O)N[C@@H](CCC(N)=O)C(=O)N[C@H](C(=O)N[C@@H](CC(C)C)C(=O)N[C@@H](CC(C)C)C(=O)N[C@@H](CCCCN)C(=O)N[C@@H](CCC(N)=O)C(=O)N[C@@H](CCC(=O)O)C(=O)N[C@@H](CCCNC(=N)N)C(=O)N[C@@H](CCC(N)=O)C(=O)N[C@@H](CCCCN)C(=O)N[C@@H](CCCCN)C(=O)NC(C)(C)C(=O)N[C@@H](CCCNC(=N)N)C(=O)N[C@@H](CCC(=O)O)C(=O)N[C@@H](CCC(N)=O)C(=O)N[C@@H](C)C(=O)N[C@@H](CCC(=O)O)C(=O)N[C@H](C(=O)N[C@@H](CC(N)=O)C(=O)N[C@@H](CCCCN)C(=O)N[C@@H](CCC(N)=O)C(=O)N[C@H](C(=O)N[C@@H](CC(C)C)C(=O)N[C@@H](C)C(=O)N[C@@H](CCC(N)=O)C(=O)N[C@H](C(N)=O)C(C)C)[C@@H](C)CC)[C@@H](C)O)[C@@H](C)CC)C(=O)O) [peptide of SEQ ID NO: 215]
6 | 0.19 | – | – | IVLSLD[dV]PIGLK([AEEA-AEEA-γGlu-Palmitoyl])QILLKQERQKK[Aib]REQAETNKQILAQV-NH2 (N-terminus assumed; SMILES CCCCCCCCCCCCCCCC(=O)N[C@@H](CCC(=O)NCCOCCOCC(=O)NCCOCCOCC(=O)NCCCC[C@H](NC(=O)[C@H](CC(C)C)NC(=O)CNC(=O)[C@@H](NC(=O)[C@@H]1CCCN1C(=O)[C@H](NC(=O)[C@H](CC(=O)O)NC(=O)[C@H](CC(C)C)NC(=O)[C@H](CO)NC(=O)[C@H](CC(C)C)NC(=O)[C@@H](NC(=O)[C@@H](N)[C@@H](C)CC)C(C)C)C(C)C)[C@@H](C)CC)C(=O)N[C@@H](CCC(N)=O)C(=O)N[C@H](C(=O)N[C@@H](CC(C)C)C(=O)N[C@@H](CC(C)C)C(=O)N[C@@H](CCCCN)C(=O)N[C@@H](CCC(N)=O)C(=O)N[C@@H](CCC(=O)O)C(=O)N[C@@H](CCCNC(=N)N)C(=O)N[C@@H](CCC(N)=O)C(=O)N[C@@H](CCCCN)C(=O)N[C@@H](CCCCN)C(=O)NC(C)(C)C(=O)N[C@@H](CCCNC(=N)N)C(=O)N[C@@H](CCC(=O)O)C(=O)N[C@@H](CCC(N)=O)C(=O)N[C@@H](C)C(=O)N[C@@H](CCC(=O)O)C(=O)N[C@H](C(=O)N[C@@H](CC(N)=O)C(=O)N[C@@H](CCCCN)C(=O)N[C@@H](CCC(N)=O)C(=O)N[C@H](C(=O)N[C@@H](CC(C)C)C(=O)N[C@@H](C)C(=O)N[C@@H](CCC(N)=O)C(=O)N[C@H](C(N)=O)C(C)C)[C@@H](C)CC)[C@@H](C)O)[C@@H](C)CC)C(=O)O) [peptide of SEQ ID NO: 216]
